Data reported in the supplement of paper PMC11316812.
± gives the standard deviation of the averaged measurements.

Tests used:
[1] = tested on: MCF7; assay: percentage of EdU-negative (G0-arrested) nuclei per well, 72 h; higher = more G0 arrest; conditions: reference: sequence is the full UniProt precursor, the tested protein was the secreted form or ectodomain
[2] = tested on: hTERT-HMEC; assay: as above; conditions: reference: sequence is the full UniProt precursor, the tested protein was the secreted form or ectodomain
[3] = protein concentration 0.01525 µM
[4] = protein concentration 0.1525 µM
[5] = protein concentration 0.0085 µM
[6] = protein concentration 0.0225 µM
[7] = protein concentration 0.007735 µM
[8] = protein concentration 0.07735 µM
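Further: secreted proteins added to cultured cells, EdU pulse at the end, nuclei found by Hoechst imaging, EdU status from nuclear versus surrounding ring intensity ratio, PBS as neutral control.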

MPSSTAMAVGALSSSLLVTCCLMVALCSPSIPLEKLAQAPEQPGQEKREHASRDGPGRVNELGRPARDEGGSGRDWKSKSGRGLAGREPWSKLKQAWVSQGGGAKAGDLQVRPRGDTPQAEALAAAAQDAIGPELAPTPEPPEEYVYPDYRGKGCVDESGFVYAIGEKFAPGPSACPCLCTEEGPLCAQPECPRLHPRCIHVDTSQCCPQCKERKNYCEFRGKTYQTLEEFVVSPCERCRCEANGEVLCTVSACPQTECVDPVYEPDQCCPICKNGPNCFAETAVIPAGREVKTDECTICHCTYEEGTWRIERQAMCTRHECRQM [Q2TAL6]
percentage of EdU-negative [1, 3]: 22.8 ± 3.1%
percentage of EdU-negative [1, 4]: 25.17 ± 0.21%
percentage of EdU-negative [2, 3]: 5.49 ± 1.1%
percentage of EdU-negative [2, 4]: 7.17 ± 0.096%

MWAGLLLRAACVALLLPGAPARGYTGRKPPGHFAAERRRLGPHVCLSGFGSGCCPGWAPSMGGGHCTLPLCSFGCGSGICIAPNVCSCQDGEQGATCPETHGPCGEYGCDLTCNHGGCQEVARVCPVGFSMTETAVGIRCTDIDECVTSSCEGHCVNTEGGFVCECGPGMQLSADRHSCQDTDECLGTPCQQRCKNSIGSYKCSCRTGFHLHGNRHSCVDVNECRRPLERRVCHHSCHNTVGSFLCTCRPGFRLRADRVSCEAFPKAVLAPSAILQPRQHPSKMLLLLPEAGRPALSPGHSPPSGAPGPPAGVRTTRLPSPTPRLPTSSPSAPVWLLSTLLATPVPTASLLGNLRPPSLLQGEVMGTPSSPRGPESPRLAAGPSPCWHLGAMHESRSRWTEPGCSQCWCEDGKVTCEKVRCEAACSHPIPSRDGGCCPSCTGCFHSGVVRAEGDVFSPPNENCTVCVCLAGNVSCISPECPSGPCQTPPQTDCCTCVPVRCYFHGRWYADGAVFSGGGDECTTCVCQNGEVECSFMPCPELACPREEWRLGPGQCCFTCQEPTPSTGCSLDDNGVEFPIGQIWSPGDPCELCICQADGSVSCKRTDCVDSCPHPIRIPGQCCPDCSAGCTYTGRIFYNNETFPSVLDPCLSCICLLGSVACSPVDCPITCTYPFHPDGECCPVCRDCNYEGRKVANGQVFTLDDEPCTRCTCQLGEVSCEKVPCQRACADPALLPGDCCSSCPDSLSPLEEKQGLSPHGNVAFSKAGRSLHGDTEAPVNCSSCPGPPTASPSRPVLHLLQLLLRTNLMKTQTLPTSPAGAHGPHSLALGLTATFPGEPGASPRLSPGPSTPPGAPTLPLASPGAPQPPPVTPERSFSASGAQIVSRWPPLPGTLLTEASALSMMDPSPSKTPITLLGPRVLSPTTSRLSTALAATTHPGPQQPPVGASRGEESTM [Q96DN2]
percentage of EdU-negative [1, 5]: 25.5 ± 1.1%
percentage of EdU-negative ([1]; protein concentration 0.085 µM): 26.4 ± 1.8%
percentage of EdU-negative [2, 5]: 4.9939 ± 0.0014%
percentage of EdU-negative ([2]; protein concentration 0.085 µM): 5.36 ± 0.4%

MTTQLRVVHLLPLLLACFVQTSPKQEKMKMDCHKDEKGTIYDYEAIALNKNEYVSFKQYVGKHILFVNVATYCGLTAQYPELNALQEELKPYGLVVLGFPCNQFGKQEPGDNKEILPGLKYVRPGGGFVPSFQLFEKGDVNGEKEQKVFSFLKHSCPHPSEILGTFKSISWDPVKVHDIRWNFEKFLVGPDGIPVMRWSHRATVSSVKTDILAYLKQFKTK
percentage of EdU-negative [1, 6]: 26.1 ± 1.7%
percentage of EdU-negative ([1]; protein concentration 0.225 µM): 27.7 ± 0.58%
percentage of EdU-negative [2, 6]: 5.29 ± 0.31%
percentage of EdU-negative ([2]; protein concentration 0.225 µM): 7.84 ± 0.53%

MSDSKEPRVQQLGLLEEDPTTSGIRLFPRDFQFQQIHGHKSSTGCLGHGALVLQLLSFMLLAGVLVAILVQVSKVPSSLSQEQSEQDAIYQNLTQLKAAVGELSEKSKLQEIYQELTQLKAAVGELPEKSKLQEIYQELTRLKAAVGELPEKSKLQEIYQELTRLKAAVGELPEKSKLQEIYQELTRLKAAVGELPEKSKLQEIYQELTELKAAVGELPEKSKLQEIYQELTQLKAAVGELPDQSKQQQIYQELTDLKTAFERLCRHCPKDWTFFQGNCYFMSNSQRNWHDSVTACQEVRAQLVVIKTAEEQNFLQLQTSRSNRFSWMGLSDLNQEGTWQWVDGSPLSPSFQRYWNSGEPNNSGNEDCAEFSGSGWNDNRCDVDNYWICKKPAACFRDE [Q9H2X3]
percentage of EdU-negative [1, 6]: 27 ± 3.5%
percentage of EdU-negative ([1]; protein concentration 0.225 µM): 23.8 ± 2.6%
percentage of EdU-negative [2, 6]: 5.68 ± 0.32%
percentage of EdU-negative ([2]; protein concentration 0.225 µM): 6.17 ± 0.82%

MVSYWDTGVLLCALLSCLLLTGSSSGSKLKDPELSLKGTQHIMQAGQTLHLQCRGEAAHKWSLPEMVSKESERLSITKSACGRNGKQFCSTLTLNTAQANHTGFYSCKYLAVPTSKKKETESAIYIFISDTGRPFVEMYSEIPEIIHMTEGRELVIPCRVTSPNITVTLKKFPLDTLIPDGKRIIWDSRKGFIISNATYKEIGLLTCEATVNGHLYKTNYLTHRQTNTIIDVQISTPRPVKLLRGHTLVLNCTATTPLNTRVQMTWSYPDEKNKRASVRRRIDQSNSHANIFYSVLTIDKMQNKDKGLYTCRVRSGPSFKSVNTSVHIYDKAFITVKHRKQQVLETVAGKRSYRLSMKVKAFPSPEVVWLKDGLPATEKSARYLTRGYSLIIKDVTEEDAGNYTILLSIKQSNVFKNLTATLIVNVKPQIYEKAVSSFPDPALYPLGSRQILTCTAYGIPQPTIKWFWHPCNHNHSEARCDFCSNNEESFILDADSNMGNRIESITQRMAIIEGKNKMASTLVVADSRISGIYICIASNKVGTVGRNISFYITDVPNGFHVNLEKMPTEGEDLKLSCTVNKFLYRDVTWILLRTVNNRTMHYSISKQKMAITKEHSITLNLTIMNVSLQDSGTYACRARNVYTGEEILQKKEITIRDQEAPYLLRNLSDHTVAISSSTTLDCHANGVPEPQITWFKNNHKIQQEPGIILGPGSSTLFIERVTEEDEGVYHCKATNQKGSVESSAYLTVQGTSDKSNLELITLTCTCVAATLFWLLLTLFIRKMKRSSSEIKTDYLSIIMDPDEVPLDEQCERLPYDASKWEFARERLKLGKSLGRGAFGKVVQASAFGIKKSPTCRTVAVKMLKEGATASEYKALMTELKILTHIGHHLNVVNLLGACTKQGGPLMVIVEYCKYGNLSNYLKSKRDLFFLNKDAALHMEPKKEKMEPGLEQGKKPRLDSVTSSESFASSGFQEDKSLSDVEEEEDSDGFYKEPITMEDLISYSFQVARGMEFLSSRKCIHRDLAARNILLSENNVVKICDFGLARDIYKNPDYVRKGDTRLPLKWMAPESIFDKIYSTKSDVWSYGVLLWEIFSLGGSPYPGVQMDEDFCSRLREGMRMRAPEYSTPEIYQIMLDCWHRDPKERPRFAELVEKLGDLLQANVQQDGKDYIPINAILTGNSGFTYSTPAFSEDFFKESISAPKFNSGSSDDVRYVNAFKFMSLERIKTFEELLPNATSMFDDYQGDSSTLLASPMLKRFTWTDSKPKASLKIDLRVTSKSKESGLSDVSRPSFCHSSCGHVSEGKRRFTYDHAELERKIACCSPPPDYNSVVLYSTPPI
percentage of EdU-negative [1, 7]: 26.6 ± 3%
percentage of EdU-negative [1, 8]: 28.1 ± 1.6%
percentage of EdU-negative [2, 7]: 4.97 ± 0.54%
percentage of EdU-negative [2, 8]: 5.7 ± 0.039%

MALRRPPRLRLCARLPDFFLLLLFRGCLIGAVNLKSSNRTPVVQEFESVELSCIITDSQTSDPRIEWKKIQDEQTTYVFFDNKIQGDLAGRAEILGKTSLKIWNVTRRDSALYRCEVVARNDRKEIDEIVIELTVQVKPVTPVCRVPKAVPVGKMATLHCQESEGHPRPHYSWYRNDVPLPTDSRANPRFRNSSFHLNSETGTLVFTAVHKDDSGQYYCIASNDAGSARCEEQEMEVYDLNIGGIIGGVLVVLAVLALITLGICCAYRRGYFINNKQDGESYKNPGKPDGVNYIRTDEEGDFRHKSSFVI [Q9BX67]
percentage of EdU-negative [1, 6]: 21.3 ± 0.85%
percentage of EdU-negative ([1]; protein concentration 0.225 µM): 24.5 ± 2.1%
percentage of EdU-negative [2, 6]: 4.86 ± 0.27%
percentage of EdU-negative ([2]; protein concentration 0.225 µM): 5.13 ± 0.74%
